Legend:
[1] = target: T1, human FcRH5 (PRO52387; FcRH5c/IRTA2c), antigen as used in Biacore and in hybridoma screening (human, UniProt Q96RD9 16-851, limits assumed); assay: SPR (Biacore 2000), IgG captured on anti-murine IgG chip, FcRH injected, 1:1 Langmuir fit, 25 C
T1 construct: The Biacore text only says that 'various FcRHs were injected'; also called Hu antigen; FcRH5/IRTA2
T1 chain: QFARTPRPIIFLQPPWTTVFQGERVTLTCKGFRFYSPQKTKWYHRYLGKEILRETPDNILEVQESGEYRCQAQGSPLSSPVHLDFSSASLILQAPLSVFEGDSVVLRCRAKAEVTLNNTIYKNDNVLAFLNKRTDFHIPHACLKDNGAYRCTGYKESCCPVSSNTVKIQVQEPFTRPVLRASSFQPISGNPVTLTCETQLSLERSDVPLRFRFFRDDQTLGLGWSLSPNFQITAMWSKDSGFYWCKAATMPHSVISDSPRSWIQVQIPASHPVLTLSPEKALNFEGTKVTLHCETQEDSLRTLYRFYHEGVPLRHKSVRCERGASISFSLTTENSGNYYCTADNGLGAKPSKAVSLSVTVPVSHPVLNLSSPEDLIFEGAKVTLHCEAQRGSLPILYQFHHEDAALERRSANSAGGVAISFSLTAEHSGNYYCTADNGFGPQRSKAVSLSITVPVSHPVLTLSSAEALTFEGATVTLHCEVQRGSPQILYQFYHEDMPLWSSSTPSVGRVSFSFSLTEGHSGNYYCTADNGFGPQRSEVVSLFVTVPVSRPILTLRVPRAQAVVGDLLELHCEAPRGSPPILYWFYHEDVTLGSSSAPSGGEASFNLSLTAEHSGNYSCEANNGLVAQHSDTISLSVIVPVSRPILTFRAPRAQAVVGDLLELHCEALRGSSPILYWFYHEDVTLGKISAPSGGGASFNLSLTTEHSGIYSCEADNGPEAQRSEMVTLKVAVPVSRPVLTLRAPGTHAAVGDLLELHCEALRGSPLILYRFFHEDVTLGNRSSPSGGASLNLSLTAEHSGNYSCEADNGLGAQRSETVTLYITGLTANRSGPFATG
Procedure: The FcRH-binding affinities of IgGs were calculated from association and dissociation rate constants measured using a Biacore 2000 surface plasmon resonance system (BIAcore, Inc.). […] Briefly, for each cycle of kinetic analysis, 5 ul of 100 nM IgG was captured on the chip, two-fold serial dilution of various FcRHs were injected at a flow rate of 20 ul/min for 150 sec. Antigen dissociation was monitored for 180 sec before regeneration. Equilibrium dissociation constants at 25° C. were calculated by fitting the data with a 1:1 Langmuir binding model. Running buffer was PBS with 0.05% Tween-20.

[2] = target: T2, cynomolgus FcRH5 on stably transfected SVT2 cells (cynomolgus monkey); assay: Scatchard, 125I-labelled antibody competed with the unlabelled same antibody on SVT2.cyFcRH5 cells, 4 C; St. Error 0.530
T2 construct: also called cyno FcRH5; cynoFcRH5
T2 chain: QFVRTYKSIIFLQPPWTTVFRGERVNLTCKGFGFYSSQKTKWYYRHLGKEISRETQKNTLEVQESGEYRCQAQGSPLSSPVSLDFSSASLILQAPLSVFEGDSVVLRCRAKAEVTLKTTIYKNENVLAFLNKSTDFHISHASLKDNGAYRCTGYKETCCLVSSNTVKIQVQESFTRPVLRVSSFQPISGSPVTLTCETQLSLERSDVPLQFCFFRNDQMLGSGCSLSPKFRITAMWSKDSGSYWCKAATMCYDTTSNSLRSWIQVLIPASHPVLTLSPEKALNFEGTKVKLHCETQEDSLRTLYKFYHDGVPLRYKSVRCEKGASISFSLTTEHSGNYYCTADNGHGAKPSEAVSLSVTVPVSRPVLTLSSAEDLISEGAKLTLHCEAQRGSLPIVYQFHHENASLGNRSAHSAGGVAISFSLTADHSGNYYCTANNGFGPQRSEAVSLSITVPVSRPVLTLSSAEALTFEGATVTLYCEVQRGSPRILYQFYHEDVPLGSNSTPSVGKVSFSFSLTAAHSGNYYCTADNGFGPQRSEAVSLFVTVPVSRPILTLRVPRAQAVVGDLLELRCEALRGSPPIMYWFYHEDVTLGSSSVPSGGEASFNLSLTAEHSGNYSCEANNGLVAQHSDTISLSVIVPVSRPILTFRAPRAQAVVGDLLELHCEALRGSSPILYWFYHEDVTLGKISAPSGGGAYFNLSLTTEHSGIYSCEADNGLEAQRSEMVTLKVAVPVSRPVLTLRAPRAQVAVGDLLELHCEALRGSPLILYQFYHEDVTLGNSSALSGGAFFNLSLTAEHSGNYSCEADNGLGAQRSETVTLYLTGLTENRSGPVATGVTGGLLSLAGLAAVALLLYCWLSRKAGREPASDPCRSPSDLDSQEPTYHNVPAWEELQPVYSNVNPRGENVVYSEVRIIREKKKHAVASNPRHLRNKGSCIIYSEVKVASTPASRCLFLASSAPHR
Procedure: (§1) To further determine binding of the FcRH5 murine antibodies and IgG clones, binding of iodinated IgG variants to OPM2 cells expressing human FcRH5 and SVT2 cells expressing cynomologous FcRH5, Scatchard analysis was performed.
(§2) For Scatchard analysis, 0.5 nM I¹²⁵ labeled murine or IgG clone anti-FcRH5 was competed against unlabeled murine or IgG clone anti-FcRH5, respectively, ranging from 50 to 0.02 nM (12 step 1:2 serial dilution) in the presence of a transfected OPM2 line stably expressing human-FcRH5 and a transfected SVT2 line stably expressing cynomologous-FcRH5. After a four hour incubation at 4° C., cells were washed and cell pellet counts were read by a gamma counter (1470 WIZARD Automatic Gamma Counter; Perkin Elmer, Walthem, Mass.). All points were done in triplicate and counted for 10 minutes. The average CPM was used for Kd calculation using the New Ligand (Genentech, South San Francisco, Calif.) program.

[3] = target: T3, human FcRH5 on stably transfected cells (BJAB, OPM2) (human, UniProt Q96RD9 16-977); assay: Scatchard, 125I-labelled antibody competed with the unlabelled same antibody on BJAB.huFcRH5 cells, 4 C; St. Error 0.046
T3 construct: Cells were transfected with pRK.CMV.PD.nbe.FcRH5 (untagged); also called huFcRH5; BJAB.huFcRH5
T3 chain: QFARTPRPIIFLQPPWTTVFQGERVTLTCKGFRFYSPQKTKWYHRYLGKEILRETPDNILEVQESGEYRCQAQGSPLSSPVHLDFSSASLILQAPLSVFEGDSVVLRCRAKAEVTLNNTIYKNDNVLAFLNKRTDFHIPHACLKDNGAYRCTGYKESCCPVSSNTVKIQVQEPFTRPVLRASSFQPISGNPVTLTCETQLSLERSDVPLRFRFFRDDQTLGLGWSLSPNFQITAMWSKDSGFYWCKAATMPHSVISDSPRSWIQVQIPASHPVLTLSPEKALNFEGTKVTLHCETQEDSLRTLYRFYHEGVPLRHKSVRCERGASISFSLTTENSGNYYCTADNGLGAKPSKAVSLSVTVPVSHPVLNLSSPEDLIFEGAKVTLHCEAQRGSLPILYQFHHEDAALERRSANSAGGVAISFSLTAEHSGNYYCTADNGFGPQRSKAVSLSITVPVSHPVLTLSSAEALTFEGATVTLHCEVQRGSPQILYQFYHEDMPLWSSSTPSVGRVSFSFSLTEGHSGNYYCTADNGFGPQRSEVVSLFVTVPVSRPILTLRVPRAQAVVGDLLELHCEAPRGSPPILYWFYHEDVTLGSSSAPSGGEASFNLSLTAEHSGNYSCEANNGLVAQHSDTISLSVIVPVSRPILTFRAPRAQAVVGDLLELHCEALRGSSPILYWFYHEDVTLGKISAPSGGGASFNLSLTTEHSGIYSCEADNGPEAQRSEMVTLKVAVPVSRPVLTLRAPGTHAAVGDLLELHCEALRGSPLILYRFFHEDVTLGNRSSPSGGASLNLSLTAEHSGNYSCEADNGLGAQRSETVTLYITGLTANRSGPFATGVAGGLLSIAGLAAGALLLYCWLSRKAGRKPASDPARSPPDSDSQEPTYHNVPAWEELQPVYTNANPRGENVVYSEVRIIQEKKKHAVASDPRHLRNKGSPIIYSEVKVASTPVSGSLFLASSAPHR

[4] = target: T2, cynomolgus FcRH5 on stably transfected …; assay: Scatchard, 125I-labelled antibody competed with the unlabelled same antibody on SVT2.cyFcRH5 cells, 4 C; St. Error 0.022
Procedure: as §1, §2

[5] = target: T2, cynomolgus FcRH5 on stably transfected …; assay: Scatchard, 125I-labelled antibody competed with the unlabelled same antibody on SVT2.cyFcRH5 cells, 4 C; St. Error 0.000
Procedure: as §1, §2

[6] = target: T3, human FcRH5 on stably transfected cells …; assay: Scatchard, 125I-labelled antibody competed with the unlabelled same antibody on OPM2.huFcRH5 cells, 4 C; St. Error 0.050
Procedure: as §1, §2

[7] = target: T3, human FcRH5 on stably transfected cells …; assay: Scatchard, 125I-labelled antibody competed with the unlabelled same antibody on OPM2.huFcRH5 cells, 4 C; St. Error 0.150
Procedure: as §1, §2

[8] = target: T2, cynomolgus FcRH5 on stably transfected …; assay: Scatchard, 125I-labelled antibody competed with the unlabelled same antibody on SVT2.cyFcRH5 cells, 4 C; St. Error 1.340
Procedure: as §1, §2

[9] = target: T2, cynomolgus FcRH5 on stably transfected …; assay: Scatchard, 125I-labelled antibody competed with the unlabelled same antibody on SVT2.cyFcRH5 cells, 4 C; St. Error 0.027
[10] = target: T3, human FcRH5 on stably transfected cells …; assay: Scatchard, 125I-labelled antibody competed with the unlabelled same antibody on BJAB.huFcRH5 cells, 4 C; St. Error 0.007

B1: murine anti-FcRH5-7D11 monoclonal antibody (antibody, V domains shown)
VH: EVQLVESGGGLVQPGGSLKLSCAASGFTFSSYGMSWVRQTPDKRLELVATITRNGGTTYYLDSVKGRFTISRDNAKNTLYLQMSSLKSEDTAMYYCARGPIYYDYGYAMDYWGQGTTVTVSS
VL: DILLTQSPAILSVSPGERVSFSCRSSQSIGTNIHWYQQRTNGSPRLLIKFASESLSGIPSRFSGSGSGTDFTLSINSVESEDFADYYCQQSNSWPLTFGAGTKVEIK
notes: Murine IgG from a hybridoma; parent of ch7D11; also called 7D11.1.1; mu7D11
[1]
  Kd: 6 nM

B2: murine anti-FcRH5 (10A8) monoclonal antibody (antibody, V domains shown)
VH: EVQLVESGGGLVKPGGSLKISCAASGFTFSSYAVSWVRQTPEKRLEWVATISSGGSLTFYLDSVRGRFTISRDNAKNTLYLQMSSLRSEDTAMYYCARPIPDYYALDYWGQGTSVTVSS
VL: DIVMTQSHKFMSTSVRDRVSITCKASQDVSTAVAWYQQKPGQSPKLLIYSASYRYTGVPDRFTGSGSGTDFTFTISSVQAEDLAVYYCQQHFSSPRTFGGGTKVEIKR
notes: Murine IgG from a hybridoma, detected with anti-mouse IgG1 in FACS; also called mu10A8; MA10A8
[2]
  Kd: 2.74 nM
[3]
  Kd: 0.44 nM

B3: chimeric anti-human FcRH5 antibody 10A8 (antibody)
heavy: not shown
light: DIVMTQSHKFMSTSVRDRVSITCKASQDVSTAVAWYQQKPGQSPKLLIYSASYRYTGVPDRFTGSGSGTDFTFTISSVQAEDLAVYYCQQHFSSPRTFGGGTKVEIKRTVAAPSVFIFPPSDEQLKSGTASVVCLLNNFYPREAKVQWKVDNALQSGNSQESVTEQDSKDSTYSLSSTLTLSKADYEKHKVYACEVTHQGLSSPVTKSFNRGEC
notes: Murine 10A8 variable domains on human IgG1 and kappa constant domains; also called ch10A8; chMAFcRH5 (10A8)
[4]
  Kd: 0.98 nM

B4: cysteine engineered chimeric anti-FcRH5 10A8, heavy chain A118C (antibody, human IgG1, kappa, name in EU numbering)
heavy: not shown
light: B3 light
notes: It is built here from the ch10A8 chains plus the stated A118C change; also called thio-ch10A8.HC; thio-ch10A8-HC(A118C)
[5]
  Kd: 1.57 nM
[6]
  Kd: 0.85 nM

B5: humanized anti-FcRH5 antibody 10A8 version 1 (antibody, human IgG1, V domains shown)
VH: EVQLVESGGGLVQPGGSLRLSCAASGFTFSSYAVSWVRQAPGKGLEWVATISSGGSLTFYLDSVRGRFTISRDNSKNTLYLQMNSLRAEDTAVYYCARPIPDYYALDYWGQGTLVTVSS
VL: DIQMTQSPSSLSASVGDRVTITCKASQDVSTAVAWYQQKPGKAPKLLIYSASYRYTGVPSRFSGSGSGTDFTLTISSLQPEDFATYYCQQHFSSPRTFGQGTKVEIKR
notes: Full-length human IgG1 with a human kappa constant domain; also called hu10A8 v1; hu10A8
[7]
  Kd: 1.44 nM
[8]
  Kd: 3.04 nM

B6: murine anti-FcRH5-6H1 monoclonal antibody (antibody)
chain 1: B2 VL
chain 2: B2 VH
[9]
  Kd: 0.38 nM
[10]
  Kd: 0.19 nM

Source: US20130089555A1 (Genentech, published 2013)
